The record followed here is patent US20240043568A1 (KEYMED BIOSCIENCES, published 2024).

In general, EC50 refers to the midpoint of the concentration-response curve. Higher therefore signals weaker potency. By Kd is commonly meant the equilibrium constant for the complex coming apart. What is called koff is the first-order rate constant of dissociation. For orientation: kon means the rate constant with which the complex forms.

One assay addresses T1, human GPC3 on cells (human, UniProt P51654 25-563).
T1 construct: whole, on cells; One molecule is used for both CHO-hGPC3 transfectants and GPC3+ HepG2 cells; The assay field names the cell; also called CHO-hGPC3 (clone 2B10); CHO-human GPC3
Put plainly: flow cytometry, CHO-human GPC3 cells. How it is done:
The binding of the antibodies to human GPC3 stably-transfected cells was detected by FACS. CHO-human GPC3 stably-transfected cells prepared in Example 1 in the logarithmic growth phase were adjusted to 5×10⁵ cells/ml with 4% calf serum (Hyclone, SH30626.06). 100 μl/well of cell suspension was added to a 96-well U-plate, and centrifuged at 300 g for 5 min. The supernatant was discarded. 100 μL of gradient diluted antibodies (initial concentration 200 nM, 3-fold dilution, 12 gradients) was added to each well and incubated at 4° C. for 45 min. The secondary antibody Alexa Fluro647 labeled goat anti-human IgG Fc (1:300 dilution) was added at 50 μL/well, incubated on ice for 45 minutes, and detected by flow cytometry.
Background: Flow cytometry measures light scatter and fluorescence of single cells or particles in a stream.

For assay [1], the target named is T2, recombinant human GPC3 protein (human, UniProt P51654 25-563).
T2 construct: also called human GPC3 full-length protein; recombinant GPC3 protein
Kind of assay: BLI (Octet), antibody on Protein A probe. On the procedure: Using BLI technology (Octet), the antibody to be tested was captured on the Protein A probe. The binding capacity with human GPC3 protein (10 μg/ml as the initial concentration, 2-fold gradient, a total of 5 concentration points) was detected. The affinity constant KD was obtained according to the association and dissociation rates.
For orientation: In BLI a coated tip is dipped into the sample, and binding shifts an interference pattern.

B1: 5D6 (antibody, V domains shown)
VH: QVQLQQSGAELVRPGASVKLSCKALGYTFADYEIHWVKQTPVHGLEWIGAIHPGSGGTAYNQTFEGKATLTADKSSTTAYMELSSLTSEDSAVYYCTRYYSFAYWGQGTLVTVSA
VL: DVLMTQTPLSLPVSLGDQASISCRSSQSLVHSNGNTYLHWYLQKPGQSPKLLIYKVSNRFSGVPDRFSGSGSGTDFTLKISRVEAEDLGVYFCSQSTHVPLTFGAGTKLELK
notes: Chimeric IgG: murine variable regions on human IgG1 CH1-CH3 and an antibody light chain constant region
Turning to B1, the EC50 with human GPC3 on cells amounted to 3.73 nM. For the same molecule, in assay [1], the Kd stood at 27.7 nM, the koff is 0.00292 s⁻¹ and the association rate constant (kon) was 105000 M⁻¹ s⁻¹.

B2: 47B6 (antibody, V domains shown)
VH: QVQLQQSGAELMKPGASVKISCKATGYTFSSYWIEWVKQRPGHGLEWIGEILPGSGSTNYNEKFKGKATFTADTSSNTAYMQLSSLTSEDSAVYYCARGYWGQGTLVTVSA
VL: DIVMTQAPLSLPVSLGDQASISCRSSQSLVHSNGNTYLHWYLQKPGQSPKLLIYKVSNRFSGVPDRFSGSGSGTDFTLKISRVEAEDLGVYFCSQSTHVPRTFGGGTKLEIK
notes: Chimeric human IgG1
Regarding B2, the EC50 with human GPC3 on cells is 0.38 nM. Also, in assay [1], the Kd turned out to be 48.2 nM, the koff was 0.00149 s⁻¹ and the kon amounted to 30800 M⁻¹ s⁻¹.

B3: 19F1 (antibody, V domains shown)
VH: QVQLQQSGAELVRPGASVKLSCKALGYTFADYEIHWVKQTPVHGLEWIGAIHPGSGGTAYNQTFEGKATLTADKSSTTAYMELSSLTSEDSAVYYCTRYYSFAYWGQGTLVTVSA
VL: DVLMTQTPLSLPVSLGDQASISCRSSQSLVHSNGNTYLHWYLQKPGQSPKLLIYKVSNRFSGVPDRFSGSGSGTDFTLKISRVEAEDLGVYFCSQSTHIPTFGGGTKLELK
notes: Chimeric human IgG1
In turn, B3 registered an EC50 with human GPC3 on cells of 3.59 nM. Also, in assay [1], the Kd came out at 18.3 nM, the koff is 0.00213 s⁻¹ and the kon was found to be 116000 M⁻¹ s⁻¹.

B4: 46C3 (antibody, V domains shown)
VH: QVQLQQSGPELVKPGASVKISCKASGYTFTDYYINWVKQKPGQGLEWIGWIYPGSGNTKYNEKFKGKATLTVDTSSSTAYMQLSSLTSEDTAVYFCARGRWGQGTLVTVSA
VL: DVVMTQTPLSLPVSLRDQASISCRSSQSLVHSNGNTYLHWYLQKPGQSPKLLIYKVSNRFSGVPDRFSGSGSGTDFTLKISRVEAEDLGVYFCSQSTHVPRTFGGGTKLELK
notes: Chimeric human IgG1
Turning to B4, the midpoint of the response with human GPC3 on cells, the EC50, lay at 0.46 nM. In assay [1], the Kd was 24.3 nM, the off-rate (koff) worked out at 0.00154 s⁻¹ and the kon was found to be 63600 M⁻¹ s⁻¹.

B5: 41F1 (antibody, V domains shown)
VH: QVQLQQSGAELVRPGASVKLSCKALGYTFADYEIHWVKQTPVHGLEWIGAIHPGSGGTAYNQTFEGKATLTADKSSTTAYMELSSLTSEDSAVYYCTRYYSFAYWGQGTLVTVSA
VL: DVLMTQTPLSLPVSLGDQASISCRSSQSLVHSNGNTYLHWYLQKPGQSPKLLIYKVSNRFSGVPDRFSGSGSGTDFTLKISRVEAEDLGVYFCSQNTHVPLTFGAGTKLELK
notes: Chimeric human IgG1
Turning to B5, in the assay with human GPC3 on cells, the EC50 came to 0.91 nM. Besides, in assay [1], the Kd is 18.5 nM, the koff worked out at 0.00181 s⁻¹ and the kon came out at 97900 M⁻¹ s⁻¹.

B6: 39G4 (antibody, V domains shown)
VH: QVQLQQSGAELVRPGASVKLSCKALGYTFADYEIHWVKQTPVHGLEWIGAIHPGSGGTAYNQTFEGKATLTADKSSTTAYMELSSLTSEDSAVYYCTRYYSFAYWGQGTLVTVSA
VL: DVVVTQTPLSLPVSLGDQASISCRSSQSLVHSNGNTYLHWYLQKPGQSPKLLIYKVSNRFSGVPDRFSGSGSGTDFTLKISRVEAEDLGVYFCSQSTHVPTFGGGTKLEIK
notes: Chimeric human IgG1
Take B6: it took 2.79 nM to reach a half-maximal effect with human GPC3 on cells (EC50). Further, in assay [1], the Kd is 26.2 nM, the koff worked out at 0.00208 s⁻¹ and the kon was determined as 79500 M⁻¹ s⁻¹.

B7: 30A4 (antibody, V domains shown)
VH: QVQLQQSGAELVRPGASVKLSCKALGYAFADYEIHWVKQTPVHGLEWIGAIHPGSGGTAYNQTFKGKATLTADKSSTTAYMELSSLTSEDSAVYYCTRYYSFAYWGQGTLVTVSA
VL: DVVMTQTPLSLPVSLGDQASISCRSSQSLVHSNGNTYLHWYLQKPGQSPKLLIYKVSNRFSGVPDRFSGSGSGTDFTLKISRVEAEDLGVYFCSQSTHVPLTFGAGTKLELK
notes: Chimeric human IgG1
For B7, it took 3.68 nM to reach a half-maximal effect in the assay with human GPC3 on cells (EC50). Besides, in assay [1], the Kd came out at 19.9 nM, the koff was found to be 0.00258 s⁻¹ and the kon was found to be 130000 M⁻¹ s⁻¹.

B8: 42A1 (antibody, V domains shown)
VH: QVQLQQSGAELVRPGASVKLSCKALGYTFADYEIHWVKQTPVHGLEWIGAIHPGSGGTAYSQTFKGKATLTADKSSTTAYMELSSLTSEDSAVYYCTRYFSFAYWGQGTLVTVSA
VL: DVVVTQTPLSLPVSLGDQASISCRSSQSLVHSNGNTYLHWYLQKPGQSPKLLIYKVSNRFSGVPDRFSGSGSGTDFTLKISRVEAEDLGVYFCSQSTHAPYTFGGGTRLEIK
notes: Chimeric human IgG1
Regarding B8, in the assay with human GPC3 on cells, the midpoint of the response, the EC50, lay at 6.69 nM. Further, in assay [1], the Kd was 40.5 nM, the koff is 0.00243 s⁻¹ and the kon came out at 60000 M⁻¹ s⁻¹.

B9: 29A10 (antibody, V domains shown)
VH: EVQLQQSGAELVRPGASVKLSCKALGYTFADYEIHWVKQTPVHGLEWIGAIHPGSGGTAYNQTFKGKATLTADKSSTTAYMELSSLTSEDSAVYYCTRYYSFAYWGQGTLVTVSA
VL: DVVMTQTPLSLPVSLGDQASISCRSSQSLVHSNGNTYLHWYLQKPGQSPKLLIYKVSNRFSGVPDRFSGSGSGTDFTLKISRVEAEDLGVYFCSQSTHVPLTFGAGTKLEIK
notes: Chimeric human IgG1
As for B9, the EC50 with human GPC3 on cells turned out to be 3.39 nM. In assay [1], the Kd is 19.8 nM, the koff was 0.00281 s⁻¹ and the kon is 142000 M⁻¹ s⁻¹.

B10: 34H1 (antibody, V domains shown)
VH: QVQLQQSGAELVRPGASVKLSCKALGYTFADYEIHWVKQTPVHGLEWIGAIHPGSGGTAYNQTFEGKATLTADKSSTTAYMELSSLTSEDSAVYYCTRYYSFAYWGQGTLVTVSA
VL: DVVMTQTPLSLPVSLGDQASISCRSSQSLVHSNGNTYLHWYLQKPGQSPKLLIYKVSNRFSGVPDRFSGSGSGTDFTLKISRVEAEDLGVYFCSQSIHVPLTFGAGTKLELK
notes: Chimeric human IgG1
B10 had an EC50 with human GPC3 on cells of 2.1 nM. Also, in assay [1], the Kd was 12.9 nM, the koff was 0.00221 s⁻¹ and the kon came to 171000 M⁻¹ s⁻¹.

B11: 38D2 (antibody, V domains shown)
VH: QVQLQQSGAELVRPGASVKLSCKALGYTFADYEIHWVKQTPVHGLEWIGAIHPGSGGTAYNQTFEGKATLTADKSSTTAYMELSSLTSEDSAVYYCTRYYSFAYWGQGTLVTVSA
VL: DVVMTQTPLSLPVSLGDQASISCRSSQSLENSNGNTYLNWYLQKPGQSPQLLIYRVSNRFSGVLDRFSGSGSGTDFTLKISRVEAEDLGVYFCLQVTHVPYTFGGGTKLEIK
notes: Chimeric human IgG1
In the assay with human GPC3 on cells, B11 showed an EC50 of 3.35 nM. Further, in assay [1], the Kd amounted to 11.3 nM, the koff is 0.000832 s⁻¹ and the kon turned out to be 73400 M⁻¹ s⁻¹.

B12: 41H1 (antibody, V domains shown)
VH: QVQLQQSGAELVRPGASVKLSCKALGYTFADYEIHWVKQTPVHGLEWIGAIHPGSGGTAYNQTFEGKATLTADKSSTTAYMELSSLTSEDSAVYYCTRYYSFAYWGQGTLVTVSA
VL: DVVMTQTPLSLPVSLGDQASISCRSSQSLVHSNGNTYLHWYLQKPGQSPKLLIYKVSNRFSGVPDRFSGSGSGTDFTLRISRVEAEDLGVYFCSQSTRVPLTFGAGTKLELK
notes: Chimeric human IgG1
With B12, in the assay with human GPC3 on cells, the EC50 worked out at 1.07 nM. Besides, in assay [1], the Kd is 25 nM, the koff was determined as 0.00264 s⁻¹ and the kon is 106000 M⁻¹ s⁻¹.

B13: 30B7 (antibody, V domains shown)
VH: QVQLQQSGAELVRPGASVRLSCKALGYTFTDYEMHWVKQTPVHGLEWIGAIHPGSGGTAYNQKFKGKATLTADKSSSTAYMELSSLTSEDSAVYYCTRYYSFAYWGQGTLVTVSA
VL: DVLMTQTPLSLPVSLGDQASISCRSSQSLVHSNGNTYLHWYLQKPGQSPKLLIYKVSNRFSGVPDRFSGSGSGTDFTLKISRVEAEDLGVYFCSQSTHVPLTFGAGTKLEIK
notes: Chimeric human IgG1
Turning to B13, the EC50 with human GPC3 on cells is 2.78 nM. Also, in assay [1], the Kd was determined as 10.9 nM, the koff amounted to 0.000783 s⁻¹ and the kon came to 71700 M⁻¹ s⁻¹.

B14: 28G4 (antibody, V domains shown)
VH: EVQLQQSGAELVRPGASVKLSCKALGYTFADYEIHWVKQTPVHGLEWIGAIHPGSGGTAYNQTFKGKATLTADKSSTTAYMELSSLTSEDSAVYYCTRYYSFAYWGQGTLVTVSA
VL: DVLMTQTPLSLPVSLGDQASISCRSSQSIVHSNGNTYLQWYLQKPGQSPKLLIYKVSNRFSGVPDRFSGSGSGTDFTLKISRVEAEDLGVYYCFQGSHVPYTFGGGTKLEIK
notes: Chimeric human IgG1
B14 came in with an EC50 with human GPC3 on cells of 2.87 nM. In addition, in assay [1], the Kd came out at 11.3 nM, the koff was 0.00112 s⁻¹ and the on-rate constant (kon) stood at 98900 M⁻¹ s⁻¹.
